Experimental data reported in publication PMC4932183.

Experiments:
[1] = target: Avi-tagged follistatin-288, biotinylated (UniProt P19883); test: BLI; biotinylated Avi-tagged FST-288 immobilised on streptavidin biosensors; analytes in kinetic buffer (PBS, 0.1% bovine serum albumin, 0.02% Tween-20); 600 s association, 600 s dissociation; 30 °C
[2] = target: myostatin mature domain (Homo sapiens) (UniProt O14793); conditions: cited from earlier work
[3] = target: activin A mature domain (Homo sapiens) (UniProt P08476); conditions: cited from earlier work
[4] = target: myostatin mature domain mature domain (Homo sapiens) (UniProt O14793); conditions: cited from earlier work
myostatin mature domain mature domain (Homo sapiens), sequence (O14793 267-375): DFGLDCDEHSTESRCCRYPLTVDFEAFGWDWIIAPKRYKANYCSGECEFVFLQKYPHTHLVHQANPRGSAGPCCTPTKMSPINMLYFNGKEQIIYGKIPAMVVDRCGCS

Avi-tagged follistatin-288, biotinylated, sequence (P19883 30-317): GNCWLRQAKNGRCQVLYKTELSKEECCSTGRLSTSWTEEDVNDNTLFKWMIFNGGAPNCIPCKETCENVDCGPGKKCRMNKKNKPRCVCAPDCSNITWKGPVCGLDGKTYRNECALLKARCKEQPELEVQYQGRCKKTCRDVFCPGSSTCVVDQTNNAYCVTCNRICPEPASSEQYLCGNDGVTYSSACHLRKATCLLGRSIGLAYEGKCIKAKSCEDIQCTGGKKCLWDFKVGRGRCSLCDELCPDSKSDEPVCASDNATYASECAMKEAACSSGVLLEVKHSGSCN
myostatin pro-domain pro-domain, sequence (O14793 24-266): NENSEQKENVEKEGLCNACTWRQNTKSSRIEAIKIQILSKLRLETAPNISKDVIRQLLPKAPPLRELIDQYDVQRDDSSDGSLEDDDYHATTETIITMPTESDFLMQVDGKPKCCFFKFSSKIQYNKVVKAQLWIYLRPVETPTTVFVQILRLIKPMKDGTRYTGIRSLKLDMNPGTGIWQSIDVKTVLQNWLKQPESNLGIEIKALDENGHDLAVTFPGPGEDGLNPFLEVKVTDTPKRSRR
activin A mature domain (Homo sapiens), sequence (P08476 311-426): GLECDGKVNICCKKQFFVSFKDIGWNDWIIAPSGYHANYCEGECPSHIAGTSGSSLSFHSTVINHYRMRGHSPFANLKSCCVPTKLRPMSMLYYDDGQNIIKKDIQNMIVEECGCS
follistatin, sequence (P19883 30-344): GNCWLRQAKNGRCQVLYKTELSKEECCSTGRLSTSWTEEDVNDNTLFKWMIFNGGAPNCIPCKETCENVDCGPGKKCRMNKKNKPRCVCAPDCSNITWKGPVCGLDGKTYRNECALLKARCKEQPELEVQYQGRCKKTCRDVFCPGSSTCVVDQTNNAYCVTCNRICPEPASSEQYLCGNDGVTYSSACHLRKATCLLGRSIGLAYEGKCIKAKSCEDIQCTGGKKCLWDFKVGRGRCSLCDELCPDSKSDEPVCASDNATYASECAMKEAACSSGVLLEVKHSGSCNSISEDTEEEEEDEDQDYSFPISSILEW
follistatin FST-288, sequence (P19883 30-344): as above
myostatin mature domain (Homo sapiens), sequence (O14793 267-375): as the sequence (O14793 267-375) above

Substance: cleaved pro-activin A complex (pro-mature complex) (from UniProt P08476 311-426)
- Kd [1]: 0.259 nM

Substance: follistatin (from UniProt P19883)
- Kd [2]: 12.3 nM

Substance: follistatin FST-288 (from UniProt P19883)
- Kd [3]: 0.0465 nM

Substance: myostatin pro-domain pro-domain (from UniProt O14793)
- Kd [4]: 8.3 nM
